Values quoted from earlier work as cited in article PMC6826157.

Legend:
[1] = biological target: Asp137 (UniProt position 137, SNYFFDTTQGH); assay: kinetics; conditions: V/K profile with the natural substrate L-tryptophan (free enzyme plus substrate)
[2] = biological target: Lys270 (UniProt position 270, AMSAKKDAMVP); assay: kinetics; conditions: V/K profile with the natural substrate L-tryptophan (free enzyme plus substrate)

## Tryptophan indole-lyase (tryptophanase, TIL, EC 4.1.99.1) (Escherichia coli)
[1]
  pKa: 6.0 ± 0.2
[2]
  pKa: 7.6 ± 0.09
